According to patent US20180002415A1 (Chugai, published 2018):
Where a chain is given by its changes, count along the chain named. Each block holds one binder with its values, some of them ahead of it.

How the values were obtained:
recombinant human C5 [1] = biological target: T1, recombinant human C5 (human, UniProt P01031 20-1676); experiment: SPR (Biacore), 37C, association at pH 7.4, dissociation at pH 5.8
T1 construct: Also used for the C5 of normal human serum in the functional rows; also called hC5; rhC5
Description: (§1) The kinetic parameters of anti-C5 antibodies against recombinant human C5 were assessed at 37° C. using BIACORE® T200 instrument (GE Healthcare) at three different conditions; (1) both association and dissociation were at pH7.4, (2) both association and dissociation were at pH5.8, and (3) association was at pH7.4 but dissociation was at pH5.8. ProA/G (Pierce) was immobilized onto a CM1 sensorchip using amine coupling kit (GE Healthcare) according to the recommended settings by GE Healthcare. Antibodies and analytes for condition (1) and (3) were diluted in ACES pH7.4 buffer (20 mM ACES, 150 mM NaCl, 1.2 mM CaCl₂, 0.05% Tween 20, 0.005% NaN₃) and for condition (2) they were diluted in ACES pH5.8 buffer (20 mM ACES, 150 mM NaCl, 1.2 mM CaCl₂, 0.05% Tween 20, 0.005% NaN₃). […] The surface was regenerated using 25 mM NaOH. Kinetic parameters at condition (1) and (2) were determined by fitting the sensorgrams with a 1:1 binding model and the dissociation rate at condition (3) was determined by fitting the sensorgrams with a 1:1 dissociation for MCK model using BIACORE® T200 Evaluation software, version 2.0 (GE Healthcare). pH dependency of all antibodies were shown as ratio of dissociation rate of condition (2) and (1).

recombinant human C5 [2] = biological target: T1, recombinant human C5; experiment: SPR (Biacore), ratio of dissociation rates of conditions (2) and (1)
Description: as §1

recombinant human C5 [3] = biological target: T1, recombinant human C5; experiment: SPR (Biacore), 37C, association and dissociation at pH 5.8, Ab on ProA/G
Description: as §1

recombinant human C5 [4] = biological target: T1, recombinant human C5; experiment: SPR (Biacore), 37C, association and dissociation at pH 7.4, Ab on ProA/G
Description: as §1

[5] = biological target: T2, recombinant cynomolgus monkey C5 (cynomolgus monkey, UniProt P01031 20-1676 (human entry), limits assumed); experiment: SPR (Biacore), 37C, pH 7.4, Ab captured on ProA/G
T2 construct: also called cynoC5
T2 chain: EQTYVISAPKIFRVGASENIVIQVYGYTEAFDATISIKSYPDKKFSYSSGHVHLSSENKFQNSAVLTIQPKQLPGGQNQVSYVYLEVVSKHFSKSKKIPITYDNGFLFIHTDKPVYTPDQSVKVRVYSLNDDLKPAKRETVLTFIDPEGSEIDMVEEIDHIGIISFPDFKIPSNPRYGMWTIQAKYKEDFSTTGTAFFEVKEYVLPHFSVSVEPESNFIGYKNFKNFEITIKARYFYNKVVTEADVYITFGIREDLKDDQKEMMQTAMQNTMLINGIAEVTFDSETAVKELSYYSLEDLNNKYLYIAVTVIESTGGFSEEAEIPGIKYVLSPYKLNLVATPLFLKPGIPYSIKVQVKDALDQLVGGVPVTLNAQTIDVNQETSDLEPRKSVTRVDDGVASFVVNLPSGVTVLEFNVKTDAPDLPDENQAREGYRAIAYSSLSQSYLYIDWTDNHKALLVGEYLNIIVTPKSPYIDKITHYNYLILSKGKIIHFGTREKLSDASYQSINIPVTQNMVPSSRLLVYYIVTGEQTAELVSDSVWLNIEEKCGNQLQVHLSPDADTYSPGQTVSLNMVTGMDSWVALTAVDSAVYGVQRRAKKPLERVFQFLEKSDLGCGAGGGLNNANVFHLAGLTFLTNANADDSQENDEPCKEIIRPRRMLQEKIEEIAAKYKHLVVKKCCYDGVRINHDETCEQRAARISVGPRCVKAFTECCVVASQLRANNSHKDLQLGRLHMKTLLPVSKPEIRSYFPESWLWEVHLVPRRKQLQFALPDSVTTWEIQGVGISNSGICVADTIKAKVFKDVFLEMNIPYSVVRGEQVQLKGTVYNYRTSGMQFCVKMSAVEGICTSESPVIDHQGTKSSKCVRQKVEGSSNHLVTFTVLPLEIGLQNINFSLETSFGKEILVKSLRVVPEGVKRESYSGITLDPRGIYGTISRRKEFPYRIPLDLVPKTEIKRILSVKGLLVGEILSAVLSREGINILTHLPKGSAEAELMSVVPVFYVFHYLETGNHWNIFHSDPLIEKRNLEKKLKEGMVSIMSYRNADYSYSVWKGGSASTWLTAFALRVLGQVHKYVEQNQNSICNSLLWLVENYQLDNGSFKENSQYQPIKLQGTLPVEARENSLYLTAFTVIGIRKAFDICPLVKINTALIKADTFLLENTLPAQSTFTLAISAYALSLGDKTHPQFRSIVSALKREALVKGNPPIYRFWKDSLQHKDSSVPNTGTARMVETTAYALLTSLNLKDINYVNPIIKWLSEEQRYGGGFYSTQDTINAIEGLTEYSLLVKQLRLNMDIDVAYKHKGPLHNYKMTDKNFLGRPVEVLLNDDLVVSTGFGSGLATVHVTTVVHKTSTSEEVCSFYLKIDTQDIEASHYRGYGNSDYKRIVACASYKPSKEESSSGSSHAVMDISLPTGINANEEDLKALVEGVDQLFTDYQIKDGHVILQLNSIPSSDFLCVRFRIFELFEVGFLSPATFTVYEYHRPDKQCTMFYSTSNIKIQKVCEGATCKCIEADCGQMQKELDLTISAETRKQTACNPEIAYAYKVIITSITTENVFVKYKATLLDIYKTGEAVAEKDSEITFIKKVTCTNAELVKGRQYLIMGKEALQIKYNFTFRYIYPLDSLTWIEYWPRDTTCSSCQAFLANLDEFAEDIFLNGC
Description: To observe the cross-reactivity of anti-C5 antibodies against human C5 (hC5) and cynomolgus monkey C5 (cynoC5), BIACORE® kinetics analysis was performed.

[6] = biological target: T3, C5 peptide 33-108 fused to GST-tag (human, UniProt P01031 33-108); experiment: summary drawing of the binding reactions to C5 beta-chain fragments
T3 construct: not shown: GST-tag (glutathione S-transferase); vector and linker not restated
T3 sequence (P01031 33-108): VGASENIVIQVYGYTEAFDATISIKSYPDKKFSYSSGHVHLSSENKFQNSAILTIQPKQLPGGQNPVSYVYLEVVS

[7] = biological target: T4, C5 peptide 45-111 fused to GST-tag (human, UniProt P01031 45-111); experiment: as above
T4 construct: not shown: GST-tag (glutathione S-transferase); vector and linker not restated
T4 sequence (P01031 45-111): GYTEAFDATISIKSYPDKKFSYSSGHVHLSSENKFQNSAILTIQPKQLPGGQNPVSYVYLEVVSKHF

[8] = biological target: T5, C5 peptide 45-124 fused to GST-tag (human, UniProt P01031 45-124); experiment: as above
T5 construct: not shown: GST-tag (glutathione S-transferase); vector and linker not restated
T5 sequence (P01031 45-124): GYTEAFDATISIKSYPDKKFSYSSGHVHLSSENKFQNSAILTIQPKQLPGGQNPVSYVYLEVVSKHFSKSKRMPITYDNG

[9] = biological target: T6, C5 peptide 52-124 fused to GST-tag (human, UniProt P01031 52-124); experiment: as above
T6 construct: not shown: GST-tag (glutathione S-transferase); vector and linker not restated
T6 sequence (P01031 52-124): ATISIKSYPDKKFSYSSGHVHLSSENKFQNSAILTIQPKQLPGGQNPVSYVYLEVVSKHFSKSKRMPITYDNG

[10] = biological target: T7, C5 peptide 33-111 fused to GST-tag (human, UniProt P01031 33-111); experiment: as above
T7 construct: not shown: GST-tag (glutathione S-transferase); vector and linker not restated
T7 sequence (P01031 33-111): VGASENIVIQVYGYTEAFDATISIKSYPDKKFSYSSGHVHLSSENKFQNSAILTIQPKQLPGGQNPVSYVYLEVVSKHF

161-340 = biological target: T8, 161-340; experiment: Western blot of E. coli lysates expressing GST-fused C5 beta-chain fragments
T8 construct: Expressed in E. coli
Description: (§2) Anti-C5 monoclonal antibodies (MAbs) were tested for binding to C5 β-chain-derived peptides in Western blot analysis. […] The E. coli samples were harvested after incubation with 1 mM Isopropyl β-D-1-thiogalactopyranoside (IPTG) for 5 hours at 37° C., and centrifuged at 20000×g for 1 min to obtain pellets.
T8 GST fusion polypeptide: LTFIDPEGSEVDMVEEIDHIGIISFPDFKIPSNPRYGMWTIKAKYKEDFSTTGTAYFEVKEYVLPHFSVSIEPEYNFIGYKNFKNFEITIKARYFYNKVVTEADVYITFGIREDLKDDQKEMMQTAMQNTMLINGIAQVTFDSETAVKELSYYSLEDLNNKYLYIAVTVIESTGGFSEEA

321-500 = biological target: T9, 321-500; experiment: as above
T9 construct: Expressed in E. coli
Description: as §2
T9 GST fusion polypeptide: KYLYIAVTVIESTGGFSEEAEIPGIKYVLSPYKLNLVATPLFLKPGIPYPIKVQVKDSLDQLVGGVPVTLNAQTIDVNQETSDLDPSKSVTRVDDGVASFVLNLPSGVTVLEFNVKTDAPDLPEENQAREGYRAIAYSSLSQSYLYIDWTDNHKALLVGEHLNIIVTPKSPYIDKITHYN

481-660 = biological target: T10, 481-660; experiment: as above
T10 construct: Expressed in E. coli
Description: as §2
T10 GST fusion polypeptide: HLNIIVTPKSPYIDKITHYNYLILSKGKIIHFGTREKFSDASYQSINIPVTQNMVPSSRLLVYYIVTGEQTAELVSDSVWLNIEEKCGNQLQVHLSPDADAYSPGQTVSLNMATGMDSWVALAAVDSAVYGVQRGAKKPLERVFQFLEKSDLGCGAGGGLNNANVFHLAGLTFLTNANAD

koff (recombinant human C5 [1]): 0.0161 s⁻¹ | pH dependency (kd pH 5.8 / kd pH 7.4) (recombinant human C5 [2]): 21.1 fold | koff (recombinant human C5 [3]): 0.00869 s⁻¹ | kon (recombinant human C5 [3]): 109000 M⁻¹ s⁻¹ | koff (recombinant human C5 [4]): 0.000412 s⁻¹ | kon (recombinant human C5 [4]): 1.28e+06 M⁻¹ s⁻¹
B1: 305LO16-SG422 (antibody, human IgG4, V domains shown)
VH: QVQLVESGGGLVQPGRSLRLSCAASGFTVHSSYYMAWVRQAPGKGLEWVGAIFTGSGAEYKAEWVKGRFTISRDNSKNTLYLQMNSLRAEDTAVYYCASDAGYDYPTHAMHYWGRGTLVTVSS
VL: DIQMTQSPSSLSASVGDRVTITCRASQGISSSLAWYQQKPGKAPKLLIYGASETESGVPSRFSGSGSGTDFTLTISSLQPEDFATYYCQNTKVGSSYGNTFGGGTKVEIKR
notes: Modified human IgG4 CH SG422, human CL SK1

koff (recombinant human C5 [1]): 0.0161 s⁻¹ | pH dependency (kd pH 5.8 / kd pH 7.4) (recombinant human C5 [2]): 17.5 fold | koff (recombinant human C5 [3]): 0.00818 s⁻¹ | kon (recombinant human C5 [3]): 141000 M⁻¹ s⁻¹ | koff (recombinant human C5 [4]): 0.000467 s⁻¹ | kon (recombinant human C5 [4]): 1.44e+06 M⁻¹ s⁻¹
B2: 305LO20-SG115 (antibody, human IgG1)
heavy: QVQLVESGGGLVQPGGSLRLSCAASGFTVHSSYYMAWVRQAPGKGLEWVGAIFTGSGAEYKAEWAKGRVTISKDTSKNQVVLTMTNMDPVDTATYYCASDAGYDYPTHAMHYWGQGTLVTVSSASTKGPSVFPLAPSSKSTSGGTAALGCLVKDYFPEPVTVSWNSGALTSGVHTFPAVLQSSGLYSLSSVVTVPSSSLGTQTYICNVNHKPSNTKVDKKVEPKSCDKTHTCPPCPAPELRRGPKVFLFPPKPKDTLMISRTPEVTCVVVDVSHEDPEVKFNWYVDGVEVHNAKTKPREEQYNSTYRVVSVLTVLHQDWLNGKEYKCKVSNKGLPSSIEKTISKAKGQPREPQVYTLPPSREEMTKNQVSLTCLVKGFYPSDIAVEWESNGQPENNYKTTPPVLDSDGSFFLYSKLTVDKSRWQQGNVFSCSVLHEALHAHYTRKELSLSP
light: DIQMTQSPSSLSASVGDRVTITCRASQGISSSLAWYQQKPGQAPRLLIYGASETESGVPSRFSGSGSGTDFTLTISSLQPEDFATYYCQNTKVGSSYGNTFGGGTKVEIKRTVAAPSVFIFPPSDEQLKSGTASVVCLLNNFYPREAKVQWKVDNALQSGNSQESVTEQDSKDSTYSLSSTLTLSKADYEKHKVYACEVTHQGLSSPVTKSFNRGEC
notes: Modified human IgG1 CH SG115, human CL SK1

koff (recombinant human C5 [1]): 0.0173 s⁻¹ | pH dependency (kd pH 5.8 / kd pH 7.4) (recombinant human C5 [2]): 20.2 fold | koff (recombinant human C5 [3]): 0.00855 s⁻¹ | kon (recombinant human C5 [3]): 133000 M⁻¹ s⁻¹ | koff (recombinant human C5 [4]): 0.000423 s⁻¹ | kon (recombinant human C5 [4]): 1.53e+06 M⁻¹ s⁻¹
B3: 305LO23-SG115 (antibody, human IgG1, V domains shown)
VH: QVQLVESGGGLVQPGGSLRLSCAASGFTVHSSYYMAWVRQAPGKGLEWVSGIFTGSGATYKAEWAKGRVTISKDTSKNQVVLTMTNMDPVDTATYYCASDAGYDYPTHAMHYWGQGTLVTVSS
VL: B1 VL with K42Q, K45R, E53T, E55Q
notes: as for B2

Kd [5]: 5.88 nM | binding result [6]: no binding | binding result [7]: no binding | binding result [8]: no binding | binding result [9]: no binding | binding result [10]: no binding | binding result (161-340): no binding | binding result (321-500): no binding | binding result (481-660): no binding
B4: CFA0501 (antibody, V domains shown)
VH: QSVEESGGRLVTPGTPLTLTCTASGFSLSSYYMNWVRQAPGKGLEWIGMIYGSGATYYASWAKGRFTISKTSSTTVDLKMTSLTTEDTATYFCARQIYSGDNNDNFWGPGTLVTVSS
VL: AYDMTQTPASVEVAVGGTVTINCQASESISNWLAWYQQKPGQRPKLLIYRASTLASGVSSRFKGSGSGTQFTLTISGVECDDAATYYCQQDYSSSNVDNTFGGGTKVVVE
notes: Chimeric, rabbit V regions; also called CFA0501-F760G4

Kd [5]: 5.44 nM | binding result [6]: no binding | binding result [7]: no binding | binding result [8]: no binding | binding result [9]: no binding | binding result [10]: no binding | binding result (161-340): no binding | binding result (321-500): no binding | binding result (481-660): no binding
B5: CFA0538 (antibody, V domains shown)
VH: B4 VH
VL: B4 VL with K106T
notes: Chimeric, rabbit V regions; also called CFA0538-F760G4

Kd [5]: 4.33 nM | binding result [6]: no binding | binding result [7]: no binding | binding result [8]: no binding | binding result [9]: no binding | binding result [10]: no binding | binding result (161-340): no binding | binding result (321-500): no binding | binding result (481-660): no binding
B6: CFA0599 (antibody, V domains shown)
VH: QSVEESGGRLVTPGTPLTLTCTVSGLSLSDNTMTWVRQAPGKGLEWIGIISFGGDAYYASWAKGRFPISKTSTTVDLRITSPTTEDTATYFCARVGAGNIFWYFDLWGPGTLVTVSS
VL: AYDMTQTPASVEVSVGGTVTIKCQASESIYSALAWYQQKPGQPPKLLIYSASTLASGVPSRFKGSGSGTEYTLTISDLECADAATYYCQQYYSSTNVHNSFGGGTTVVVE
notes: Chimeric, rabbit V regions; also called CFA0599-F760G4

Kd [5]: 1.57 nM | binding result [6]: no binding | binding result [7]: no binding | binding result [8]: no binding | binding result [9]: no binding | binding result [10]: no binding | binding result (161-340): no binding | binding result (321-500): no binding | binding result (481-660): no binding
B7: CFA0666 (antibody, V domains shown)
VH: QSVEESGGRLVTPGTPLTLTCTVSGFSLSTYAMGWVRQAPGKGLEWIGTIDTGDNSFYANWAKGRFTISKTSTTVDLKITSPTAEDTATYFCARNDGSVYNLFNLWGPGTLVTVSS
VL: DVVMTQTPASVSAAVGGTVTIKCQASENIYSALSWYQQKPGLRPRLLIYYASTLASGVPSRFKGSRSGTEFTLTISDLECADAATYYCQQYYDINSVDNTFGGGTKVVVE
notes: Chimeric, rabbit V regions; also called CFA0666-F760G4
